The text below walks through data of patent US11821042B2, “Targeting chromosomal instability and downstream cytosolic DNA signaling for cancer treatment” (Cornell University, priority 2017, dated 2023).

The subject of one assay is cGAS. As to the kind of experiment: cGAS localization to micronuclei by immunofluorescence. Type of assay: cell-based, human. To be noted: Lamin B2 overexpression in dnMCAK cells. As for the experimental part:
(§1) Cell fixation and antibody staining were performed as described (Bakhoun et al. Nat Commun 6, 5990 (2015)). Briefly, cells were fixed with ice-cold (−30 C) methanol for 15 minutes—when staining for centromeres, centrosomes, cGAS, Vimentin, β-actin, or α-tubulin—or 4% paraformaldehyde—when staining for RelB, p65, IRF3, ssDNA, dsDNA, CoxIV, or β-catenin. Subsequently, cells were permeabilized using 1% triton for 4 minutes. See Table 1 for antibody information.

In the next assay the test system is cytosolic DNA. As to the kind of experiment: Cytosolic dsDNA and ssDNA staining after selective plasma membrane permeabilization. The note with it: after overexpression of Dnase2. The assay is classed as cell-based, human. How it is done: as §1
For selective plasma membrane permeabilization used for cytosolic dsDNA and ssDNA staining, cells were treated with 0.02% saponin for 5 minutes after fixation. For single-stranded (Thermo Fisher FEREN0321) and double stranded (Life Technologies—EN0771)-specific nuclease treatment, cells were also permeabilized with 0.02% saponin for 2 minutes and treated with either nucleases for 10 minutes before fixation using 4% paraformaldehyde. TBS-BSA was used as a blocking agent during antibody staining. DAPI was added together with secondary antibodies. Cells were mounted with Prolong Diamond Antifade Mountant (Life Technologies—P36961).

A further assay relates to H2030 cells. As to the kind of experiment: Chromosome missegregation in anaphase cells. The note with it: overexpression in H2030 cells. The assay is classed as cell-based, human. As for the experimental part:
(§2) Primary tumor specimens were analyzed from 60 patients with head and neck squamous cell carcinoma (HNSCC) (Chung et al. Cancer Cell 5, 489-500 (2004)). Forty patients had Hematoxylin and Eosin-stained (H&E) primary tumor samples of sufficient quality for high-resolution microscopy analysis. Analysis was restricted to cells fixed while undergoing anaphase as previously described (Bakhoun et al. Clin. Cancer Res. 17, 7704-7711 (2011); Zaki et al. Cancer 120, 1733-1742 (2014)). Chromosome missegregation was defined by hematoxylin staining presence in between the remaining segregating chromosomes during anaphase and it was reported as the percentage of cells undergoing anaphase with evidence of chromosome missegregation. Clinical lymph node status was defined by clinical examination or radiographic evidence of lymph node tumor involvement (Chung et al. Cancer Cell 5, 489-500 (2004)).
as §1
(§3) To determine whether chromosomal instability is causally involved in metastasis, we devised a genetic approach (Bakhoun et al., Nat. Cell Biol. 11, 27-35 (2009); Bakhoun et al., Nat Commun 6, 5990 (2015)) to alter the rate of chromosome missegregation in transplantable tumor models of human TNBC (MDA-MB-231) and lung adenocarcinoma (H2030). […] These cells, with unperturbed chromosome segregation rates, are referred to a as CIN-medium cells. […] As an important control, Kif2a was overexpressed, Kif2a is a third member of the microtubule-depolymerizing kinesin-13 proteins that lacks any kinetochore or centromere localization domains (Ems-McClung et al. Semin. Cell Dev. Biol. 21, 276-282 (2010)).

Assay [1] deals with MDA-MB-231 cells. As to the kind of experiment: Chromosome missegregation in anaphase cells. Type of assay: cell-based, human. The note with it: overexpression in MDA-MB-231 cells. As for the experimental part:
as §2, §1, §3

Assay [2] concerns MDA-MB-231 cells. Kind of assay: Intracardiac injection metastasis model, bioluminescence imaging and disease-specific survival. Type of assay: in vivo, mice. To be noted: intracardiac injection of MDA-MB-231 cells expressing the protein, FIG. 2E. How it is done: Animal experiments were performed in accordance with protocols approved by the Weill Cornell Medicine Institutional Animal Care and Use Committee. […] There was no need to randomize animals. Investigators were not blinded to group allocation. Intracardiac injection was performed as previously described (Chen et al. Nature 533, 493-498 (2016)). Briefly, cells were trypsinized and washed with PBS and a 1×10^5 cells (in 100 μl of PBS) were injected into the left cardiac ventricle of female athymic 6-7-week-old athymic nude (nu/nu) mice (Jackson Laboratory strain 002019). Mice were then immediately injected with D-luciferin (150 mgkg^−1) and subjected to bioluminescence imaging (BLI) using tan IVIS Spectrum Xenogen instrument (Caliper Life Sciences) to ensure systemic dissemination of tumor cells. Metastatic burden was measured at week 5 after injection using BLI and in the case of MDA-MB-231 mice BLI images were taken every 1-2 weeks for up to 17 weeks. BLI images were analyzed using Living Image Software v.2.50. Disease-specific survival endpoint was met when the mice died or met the criteria for euthanasia under the IACUC protocol and had radiographic evidence of metastatic disease. For Orthotopic tumor implantation, 2.5×10^5 cells in 50p of PBS were mixed 1:1 with Matrigel (BD Biosciences) and injected into the fourth mammary fat pad. Only one tumor was implanted per animal. Primary tumors were surgically excited when they reached ˜1.5 cm in the largest dimension and metastatic dissemination was assessed using BLI imaging at 1-week to 3-week intervals for up to 30 weeks. Distant metastasis-free survival endpoint was met when BLI signal was seen outside of site of primary tumor transplantation. To derive short-term culture from primary tumors and metastases, anesthetized animals (isofluorane) were imaged then sacrificed. Ex-vivo BLI was subsequently performed on harvested organs to define the precise location of the metastatic lesion. Primary tumors and metastases were subsequently mechanically dissociated and cultured in DMEM with selection media to select for tumor cells. […]

B1: Lamin B2: mCherry-Lamin B2 overexpressed to stabilize micronuclear envelopes (protein, UniProt Q03252 1-617, looked up)
Lamin-B2: MSPPSPGRRREQRRPRAAATMATPLPGRAGGPATPLSPTRLSRLQEKEELRELNDRLAHYIDRVRALELENDRLLLKISEKEEVTTREVSGIKALYESELADARRVLDETARERARLQIEIGKLRAELDEVNKSAKKREGELTVAQGRVKDLESLFHRSEVELAAALSDKRGLESDVAELRAQLAKAEDGHAVAKKQLEKETLMRVDLENRCQSLQEELDFRKSVFEEEVRETRRRHERRLVEVDSSRQQEYDFKMAQALEELRSQHDEQVRLYKLELEQTYQAKLDSAKLSSDQNDKAASAAREELKEARMRLESLSYQLSGLQKQASAAEDRIRELEEAMAGERDKFRKMLDAKEQEMTEMRDVMQQQLAEYQELLDVKLALDMEINAYRKLLEGEEERLKLSPSPSSRVTVSRATSSSSGSLSATGRLGRSKRKRLEVEEPLGSGPSVLGTGTGGSGGFHLAQQASASGSVSIEEIDLEGKFVQLKNNSDKDQSLGNWRIKRQVLEGEEIAYKFTPKYILRAGQMVTVWAAGAGVAHSPPSTLVWKGQSSWGTGESFRTVLVNADGEEVAMRTVKKSSVMRENENGEEEEEEAEFGEEDLFHQQGDPRTTSRGC
modifications: mCherry fusion
notes: mCherry-Lamin B2 overexpressed to stabilize micronuclear envelopes
As for B1, the “relative fraction of micronuclei with cGAS staining” value in the assay with cGAS is “significantly diminished”.

B2: Dnase2: Dnase2 overexpressed using a pLenti-GIII-CMV-RFP-2A-Puro plasmid (protein, UniProt O00115 19-360, looked up)
Deoxyribonuclease-2-alpha: CYGDSGQPVDWFVVYKLPALRGSGEAAQRGLQYKYLDESSGGWRDGRALINSPEGAVGRSLQPLYRSNTSQLAFLLYNDQPPQPSKAQDSSMRGHTKGVLLLDHDGGFWLVHSVPNFPPPASSAAYSWPHSACTYGQTLLCVSFPFAQFSKMGKQLTYTYPWVYNYQLEGIFAQEFPDLENVVKGHHVSQEPWNSSITLTSQAGAVFQSFAKFSKFGDDLYSGWLAAALGTNLQVQFWHKTVGILPSNCSDIWQVLNVNQIAFPGPAGPSFNSTEDHSKWCVSPKGPWTCVGDMNRNQGEEQRGGGTLCAQLPALWKAFQPLVKNYQPCNGMARKPSRAYKI
Regarding B2, the “cytosolic dsDNA staining signal” value in the assay with cytosolic DNA was “disappeared”.

B3: Kif2a: third microtubule-depolymerizing kinesin-13 protein lacking kinetochore or centromere localization domains; control (protein, UniProt O00139 1-706, looked up)
Kinesin-like protein KIF2A: MATANFGKIQIGIYVEIKRSDGRIHQAMVTSLNEDNESVTVEWIENGDTKGKEIDLESIFSLNPDLVPDEEIEPSPETPPPPASSAKVNKIVKNRRTVASIKNDPPSRDNRVVGSARARPSQFPEQSSSAQQNGSVSDISPVQAAKKEFGPPSRRKSNCVKEVEKLQEKREKRRLQQQELREKRAQDVDATNPNYEIMCMIRDFRGSLDYRPLTTADPIDEHRICVCVRKRPLNKKETQMKDLDVITIPSKDVVMVHEPKQKVDLTRYLENQTFRFDYAFDDSAPNEMVYRFTARPLVETIFERGMATCFAYGQTGSGKTHTMGGDFSGKNQDCSKGIYALAARDVFLMLKKPNYKKLELQVYATFFEIYSGKVFDLLNRKTKLRVLEDGKQQVQVVGLQEREVKCVEDVLKLIDIGNSCRTSGQTSANAHSSRSHAVFQIILRRKGKLHGKFSLIDLAGNERGADTSSADRQTRLEGAEINKSLLALKECIRALGRNKPHTPFRASKLTQVLRDSFIGENSRTCMIATISPGMASCENTLNTLRYANRVKELTVDPTAAGDVRPIMHHPPNQIDDLETQWGVGSSPQRDDLKLLCEQNEEEVSPQLFTFHEAVSQMVEMEEQVVEDHRAVFQESIRWLEDEKALLEMTEEVDYDVDSYATQLEAILEQKIDILTELRDKVKSFRAALQEEEQASKQINPKRPRAL
Take B3: the “chromosome segregation errors during anaphase” value with H2030 cells and in the assay with MDA-MB-231 cells [1] was “no effect” throughout. Further, the “disease-specific survival of mice” value with MDA-MB-231 cells [2] was “middle levels of survival”.

B4: Kif2b: kinesin-13 protein, human sequence SEQ ID NO:1, overexpressed in tumor cells (protein, listed as Homo sapiens)
chain: MASQFCLPESPCLSPLKPLKPHFGDIQEGIYVAIQRSDKRIHLAVVTEINRENYWVTVEWVEKAVKKGKKIDLETILLLNPALDSAEHPMPPPPLSPLALAPSSAIRDQRTATKWVAMIPQKNQTASGDSLDVRVPSKPCLMKQKKSPCLWEIQKLQEQREKRRRLQQEIRARRALDVNTRNPNYEIMHMIEEYRRHLDSSKISVLEPPQEHRICVCVRKRPLNQRETTLKDLDIITVPSDNVVMVHESKQKVDLTRYLQNQTFCFDHAFDDKASNELVYQFTAQPLVESIFRKGMATCFAYGQTGSGKTYTMGGDFSGTAQDCSKGIYALVAQDVFLLLRNSTYEKLDLKVYGTFFEIYGGKVYDLLNWKKKLQVLEDGNQQIQVVGLQEKEVCCVEEVLNLVEIGNSCRTSRQTPVNAHSSRSHAVFQIILKSGRIMHGKFSLVDLAGNERGADTTKASRKRQLEGAEINKSLLALKECILALGQNKPHTPFRASKLTLVLRDSFIGQNSSTCMIATISPGMTSCENTLNTLRYANRVKKLNVDVRPYHRGHYPIGHEAPRMLKSHIGNSEMSLQRDEFIKIPYVQSEEQKEIEEVETLPTLLGKDTTISGKGSSQWLENIQERAGGVHHDIDFCIARSLSILEQKIDALTEIQKKLKLLLADLHVKSKVE
As to B4, the “chromosome segregation errors during anaphase” value in the assay with H2030 cells and in the assay on MDA-MB-231 cells [1] was “significant suppression” throughout. Besides, in the assay on MDA-MB-231 cells [2], the “disease-specific survival of mice” value is given as “most survival”.

B5: MCAK/Kif2c: kinesin-13 protein, human sequence SEQ ID NO:3 or 7, overexpressed in tumor cells (protein, listed as Homo sapiens)
chain: MAMDSSLQARLFPGLAIKIQRSNGLIHSANVRTVNLEKSCVSVEWAEGGATKGKEIDFDDVAAINPELLQLLPLHPKDNLPLQENVTIQKQKRRSVNSKIPAPKESLRSRSTRMSTVSELRITAQENDMEVELPAAANSRKQFSVPPAPTRPSCPAVAEIPLRMVSEEMEEQVHSIRGSSSANPVNSVRRKSCLVKEVEKMKNKREEKKAQNSEMRMKRAQEYDSSFPNWEFARMIKEFRATLECHPLTMTDPIEEHRICVCVRKRPLNKQELAKKEIDVISIPSKCLLLVHEPKLKVDLTKYLENQAFCFDFAFDETASNEVVYRFTARPLVQTIFEGGKATCFAYGQTGSGKTHTMGGDLSGKAQNASKGIYAMASRDVFLLKNQPCYRKLGLEVYVTFFEIYNGKLFDLLNKKAKLRVLEDGKQQVQVVGLQEHLVNSADDVIKMLDMGSACRTSGQTFANSNSSRSHACFQIILRAKGRMHGKFSLVDLAGNERGADTSSADRQTRMEGAEINKSLLALKECIRALGQNKAHTPFRESKLTQVLRDSFIGENSRTCMIATISPGISSCEYTLNTLRYADRVKELSPHSGPSGEQLIQMETEEMEACSNGALIPGNLSKEEEELSSQMSSFNEAMTQIRELEEKAMEELKEIIQQGPDWLELSEMTEQPDYDLETFVNKAESALAQQAKHFSALRDVIKALRLAMQLEEQASRQISSKKRPQ
For B5, the “chromosome segregation errors during anaphase” value with H2030 cells and in the assay on MDA-MB-231 cells [1] was “significant suppression” each time. In the assay on MDA-MB-231 cells [2], the “disease-specific survival of mice” value is reported as “most survival”.
